Test results as given in paper PMC10745820, “Bode Phase Angle Signaling of a TB Disease Biomarker”.

Molecular target: interferon gamma (IFN-γ) (UniProt P01579 24-161)
Assay: electrochemical impedance aptasensor (Bode phase angle); spiked pleural fluid, IFN-γ 0.2-2.2 pg/mL; linear 0.2-1.2 pg/mL; LOD 0.09 (abstract) or 0.11 pg/mL; no Kd; aptamer-free control sensor only slight change; Aptamer folded in 0.1 M phosphate buffer, 10 mM KCl, 2 mM MgCl2 (90 °C 10 min, 4 °C 5 min, RT 10 min); IFN-γ in spiked pleural fluid; EIS in phosphate buffer/PBS pH 7.4; binding temperature not stated
Settings: chain copies: 2

Sequence of interferon gamma (IFN-γ) (P01579 24-161): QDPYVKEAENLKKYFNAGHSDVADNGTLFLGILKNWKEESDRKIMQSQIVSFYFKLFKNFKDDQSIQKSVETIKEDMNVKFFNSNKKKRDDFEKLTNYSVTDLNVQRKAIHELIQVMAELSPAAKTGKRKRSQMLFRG

## CGGCGAAGGCACGTGTGGGGTGGTCGCGT (ssDNA, 5' thiol (5ThioMC6-D, printed as 5thiolMCS-D)) [29-mer anti-IFN-γ aptamer]
  binding result: binds
